B1: edans-DFHLQGP-dabcyl (peptide)
peptide: edans-DFHLQGP-dabcyl
B2: edans-…-dabcyl (peptide)
peptide: edans-EPDFHLQGPEDLAK-dabcyl

Assays:
[1] = biological target: Norwalk virus protease (NVpro) (Norwalk virus (norovirus GI/1)) (UniProt Q83883)
[2] = biological target: MD145 virus protease (MD145pro) (MD145 virus (norovirus GII/4))

UniProt Q83883, sequence (Q83883 1101-1281): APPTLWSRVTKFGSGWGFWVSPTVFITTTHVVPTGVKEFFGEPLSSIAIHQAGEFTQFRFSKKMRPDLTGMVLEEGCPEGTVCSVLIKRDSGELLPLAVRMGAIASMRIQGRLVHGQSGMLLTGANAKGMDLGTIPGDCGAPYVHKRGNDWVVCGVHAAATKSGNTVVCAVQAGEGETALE

Row | Binder | Km of cleavage of the fluorogenic substrate (FRET protease assay) [1] | Km of cleavage of the fluorogenic substrate (FRET protease assay) [2]
1 | B1 | 272 µM | 160 µM
2 | B2 | 790 µM | 545 µM
